This test concerns the target T1, recombinant human vaspin (visceral adipose tissue-derived serpin; serpinA12), 10×His fusion protein (human, UniProt Q8IW75 22-414).
T1 construct: the crystal structure model covers residues 37-366 and 378-414 (chain A); The natural signal peptide is probably absent from the construct; also called native human vaspin; 10×His–vaspin
T1 sequence: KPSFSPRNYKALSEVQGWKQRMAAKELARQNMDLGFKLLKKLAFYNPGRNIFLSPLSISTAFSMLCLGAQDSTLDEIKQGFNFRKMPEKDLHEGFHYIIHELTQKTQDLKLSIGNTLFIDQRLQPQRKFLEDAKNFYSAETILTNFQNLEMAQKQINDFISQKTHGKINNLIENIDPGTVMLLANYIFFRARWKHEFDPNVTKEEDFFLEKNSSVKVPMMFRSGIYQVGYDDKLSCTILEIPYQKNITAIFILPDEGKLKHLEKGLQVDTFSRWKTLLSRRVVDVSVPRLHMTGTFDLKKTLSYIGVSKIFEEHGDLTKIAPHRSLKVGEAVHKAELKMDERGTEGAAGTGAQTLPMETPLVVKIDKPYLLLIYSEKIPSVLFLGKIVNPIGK
As to the kind of experiment: protease activity assay, association rate under pseudo-first-order conditions (residual activity, fluorogenic peptide substrate); tenfold molar excess of vaspin over hK7; remaining hK7 activity against time; k ass = k obs/[I] from a linear fit of ln activity against time. The conditions noted are these: both partners purified.

Our source for the kon values is publication PMC3689916, “Vaspin inhibits kallikrein 7 by serpin mechanism” (Cellular and Molecular Life Sciences: CMLS, 2013).

B1: recombinant human kallikrein 7 (hK7) (enzyme, UniProt P49862 23-253, looked up)
chain: IIDGAPCARGSHPWQVALLSGNQLHCGGVLVNERWVLTAAHCKMNEYTVHLGSDTLGDRRAQRIKASKSFRHPGYSTQTHVNDLMLVKLNSQARLSSMVKKVRLPSRCEPPGTTCTVSGWGTTTSPDVTFPSDLMCVDVKLISPQDCTKVYKDLLENSMLCAGIPDSKKNACNGDSGGPLVCRGTLQGLVSWGTFPCGQPNDPGVYTQVCKFTKWINDTMKKHR
notes: source: bought: R&D Systems
B1: the kon – broadly, the second-order rate constant of association – stood at 7300 M⁻¹ s⁻¹.
